In EP2025683A1 (INSERM (Institut National de la Santé et de la Recherche …, dated 2009):

T1: human prolactin receptor (human, UniProt P16471 25-622)
T1 construct: whole, on cells; the bioassays used whole cells; also called hPRLR; human PRLR
T1 sequence (looked up): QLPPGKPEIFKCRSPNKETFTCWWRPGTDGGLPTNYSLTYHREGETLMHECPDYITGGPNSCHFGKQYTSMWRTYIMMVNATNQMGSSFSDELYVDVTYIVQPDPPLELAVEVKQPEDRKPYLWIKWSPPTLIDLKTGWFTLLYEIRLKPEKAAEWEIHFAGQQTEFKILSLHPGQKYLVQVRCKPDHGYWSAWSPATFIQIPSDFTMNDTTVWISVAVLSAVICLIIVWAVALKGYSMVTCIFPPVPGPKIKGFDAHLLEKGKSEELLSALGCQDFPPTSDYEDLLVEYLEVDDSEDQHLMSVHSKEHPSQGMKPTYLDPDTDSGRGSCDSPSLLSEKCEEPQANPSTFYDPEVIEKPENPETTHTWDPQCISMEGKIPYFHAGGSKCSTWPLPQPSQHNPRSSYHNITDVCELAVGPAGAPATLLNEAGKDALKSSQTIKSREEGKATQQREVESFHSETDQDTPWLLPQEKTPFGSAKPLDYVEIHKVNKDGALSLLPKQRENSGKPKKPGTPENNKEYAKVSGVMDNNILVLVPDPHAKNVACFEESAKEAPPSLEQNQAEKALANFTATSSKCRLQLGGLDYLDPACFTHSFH


Molecular target: T1, human prolactin receptor
Assay: displacement of [125I]-hPRL, homogenates of HEK 293 cells stably expressing hPRLR (HL-5 clone)

IC50	affinity relative to WT hPRL	Molecule
19 nM	~1 order of magnitude lower than WT hPRL	G129R-hPRL (ligand, human, UniProt P01236 29-227, looked up, mature) LPICPGGAARCQVTLRDLFDRAVVLSHYIHNLSSEMFSEFDKRYTHGRGFITKAINSCHTSSLATPEDKEQAQQMNQKDFLSLIVSILRSWNEPLYHLVTEVRGMQEAPEAILSKAVEIEEQTKRLLERMELIVSQVHPETKENEIYPVWSGLPSLQMADEESRLSAYYNLLHCLRRDSHKIDNYLKLLKCRIIHNNNC

Molecular target: T1, human prolactin receptor
Assay: cell-based or functional assay

Molecule	Agonism Ba/F-LP cells (% of hPRL max activity) (% of hPRL max activity)	Antagonism HL-5 cells IC50	Agonism Ba/F-LP cells (% of hPRL max activity)
G129D-hPRL (ligand, human, UniProt P01236 29-227, looked up) LPICPGGAARCQVTLRDLFDRAVVLSHYIHNLSSEMFSEFDKRYTHGRGFITKAINSCHTSSLATPEDKEQAQQMNQKDFLSLIVSILRSWNEPLYHLVTEVRGMQEAPEAILSKAVEIEEQTKRLLEDMELIVSQVHPETKENEIYPVWSGLPSLQMADEESRLSAYYNLLHCLRRDSHKIDNYLKLLKCRIIHNNNC	–	340 nM	23.6 % of hPRL max activity
G129P-hPRL (ligand, human, UniProt P01236 29-227, looked up) LPICPGGAARCQVTLRDLFDRAVVLSHYIHNLSSEMFSEFDKRYTHGRGFITKAINSCHTSSLATPEDKEQAQQMNQKDFLSLIVSILRSWNEPLYHLVTEVRGMQEAPEAILSKAVEIEEQTKRLLEPMELIVSQVHPETKENEIYPVWSGLPSLQMADEESRLSAYYNLLHCLRRDSHKIDNYLKLLKCRIIHNNNC	–	340 nM	90.4 % of hPRL max activity
G129L-hPRL (ligand, human, UniProt P01236 29-227, looked up) LPICPGGAARCQVTLRDLFDRAVVLSHYIHNLSSEMFSEFDKRYTHGRGFITKAINSCHTSSLATPEDKEQAQQMNQKDFLSLIVSILRSWNEPLYHLVTEVRGMQEAPEAILSKAVEIEEQTKRLLELMELIVSQVHPETKENEIYPVWSGLPSLQMADEESRLSAYYNLLHCLRRDSHKIDNYLKLLKCRIIHNNNC	–	160 nM	16.8 % of hPRL max activity
G129F-hPRL (ligand, human, UniProt P01236 29-227, looked up) LPICPGGAARCQVTLRDLFDRAVVLSHYIHNLSSEMFSEFDKRYTHGRGFITKAINSCHTSSLATPEDKEQAQQMNQKDFLSLIVSILRSWNEPLYHLVTEVRGMQEAPEAILSKAVEIEEQTKRLLEFMELIVSQVHPETKENEIYPVWSGLPSLQMADEESRLSAYYNLLHCLRRDSHKIDNYLKLLKCRIIHNNNC	–	110 nM	19.1 % of hPRL max activity
G129N-hPRL (ligand, human, UniProt P01236 29-227, looked up) LPICPGGAARCQVTLRDLFDRAVVLSHYIHNLSSEMFSEFDKRYTHGRGFITKAINSCHTSSLATPEDKEQAQQMNQKDFLSLIVSILRSWNEPLYHLVTEVRGMQEAPEAILSKAVEIEEQTKRLLENMELIVSQVHPETKENEIYPVWSGLPSLQMADEESRLSAYYNLLHCLRRDSHKIDNYLKLLKCRIIHNNNC	–	130 nM	26.4 % of hPRL max activity

Results, then the molecule that gave them:

Agonism Ba/F-LP cells (% of hPRL max activity) (% of hPRL max activity)	Antagonism HL-5 cells IC50	Agonism Ba/F-LP cells (% of hPRL max activity)	Molecule
8.3	120 nM	–	Del1-9-G129R-hPRL (from UniProt P01236 29-227) (ligand)
–	190 nM	24.3 % of hPRL max activity	G129Y-hPRL (ligand, human, UniProt P01236 29-227, looked up) LPICPGGAARCQVTLRDLFDRAVVLSHYIHNLSSEMFSEFDKRYTHGRGFITKAINSCHTSSLATPEDKEQAQQMNQKDFLSLIVSILRSWNEPLYHLVTEVRGMQEAPEAILSKAVEIEEQTKRLLEYMELIVSQVHPETKENEIYPVWSGLPSLQMADEESRLSAYYNLLHCLRRDSHKIDNYLKLLKCRIIHNNNC
–	200 nM	45.5 % of hPRL max activity	G129R-hPRL (ligand, human, UniProt P01236 29-227, looked up, mature) LPICPGGAARCQVTLRDLFDRAVVLSHYIHNLSSEMFSEFDKRYTHGRGFITKAINSCHTSSLATPEDKEQAQQMNQKDFLSLIVSILRSWNEPLYHLVTEVRGMQEAPEAILSKAVEIEEQTKRLLERMELIVSQVHPETKENEIYPVWSGLPSLQMADEESRLSAYYNLLHCLRRDSHKIDNYLKLLKCRIIHNNNC
–	110 nM	14.2 % of hPRL max activity	G129V-hPRL (ligand, human, UniProt P01236 29-227, looked up) LPICPGGAARCQVTLRDLFDRAVVLSHYIHNLSSEMFSEFDKRYTHGRGFITKAINSCHTSSLATPEDKEQAQQMNQKDFLSLIVSILRSWNEPLYHLVTEVRGMQEAPEAILSKAVEIEEQTKRLLEVMELIVSQVHPETKENEIYPVWSGLPSLQMADEESRLSAYYNLLHCLRRDSHKIDNYLKLLKCRIIHNNNC
